Molecular target: T1, telomerase (hTERT) peptide on HLA-A*02:01 (human)
T1 peptide: RLVDDFLLV
Assay: multimer staining

B1: TCR specific for the HLA-A2/hTERT865-873 complex (α5 and β3 chains, SEQ. ID. no. 1 and 2) (TCR, V domains shown)
Valpha: GEQVEQRPPHLSVREGDSAVIICTYTDPNSYYFFWYKQEPGAGLQLLMKVFSSTEINEGQGFTVLLNKKDKQLSLNLTAAHPGDSAVYFCAVRHDSGYNKLTFGKGTVLLVSP
Vbeta: NSKVIQTPRYLVKGQGQKAKMRCIPEKGHPVVFWYQQNKNNEFKFLINFQNQEVLQQIDMTEKRFSAECPSNSPCSLEIQSSEAGDSALYLCASSLSKGGFYEQYFGPGTRLTVL
  binding result: recognises

— patent publication EP3271384B1 (dated 2023)
